Legend:
[1] = target: T1, human (Homo sapiens) ROR2, full length, on cells (human, UniProt Q01974 34-943); assay: cell-based or functional assay
[2] = target: T2, cynomolgus monkey ROR2 in which threonine at position 322 is replaced by methionine (ROR2mf-T322M) (cynomolgus monkey (Macaca fascicularis), UniProt Q01974 34-943 (human entry)); assay: flow cytometry on CHO cells expressing ROR2mf-T322M
T2 construct: also called RORmf-T322M

[3] = target: T3, cynomolgus monkey (Macaca fascicularis) ROR2, full length, on CHO cells (cynomolgus monkey (Macaca fascicularis), UniProt Q01974 34-943 (human entry)); assay: flow cytometry on CHO cells expressing cynomolgus monkey ROR2
T3 construct: also called ROR2mf; CHO-mfROR2
T3 chain: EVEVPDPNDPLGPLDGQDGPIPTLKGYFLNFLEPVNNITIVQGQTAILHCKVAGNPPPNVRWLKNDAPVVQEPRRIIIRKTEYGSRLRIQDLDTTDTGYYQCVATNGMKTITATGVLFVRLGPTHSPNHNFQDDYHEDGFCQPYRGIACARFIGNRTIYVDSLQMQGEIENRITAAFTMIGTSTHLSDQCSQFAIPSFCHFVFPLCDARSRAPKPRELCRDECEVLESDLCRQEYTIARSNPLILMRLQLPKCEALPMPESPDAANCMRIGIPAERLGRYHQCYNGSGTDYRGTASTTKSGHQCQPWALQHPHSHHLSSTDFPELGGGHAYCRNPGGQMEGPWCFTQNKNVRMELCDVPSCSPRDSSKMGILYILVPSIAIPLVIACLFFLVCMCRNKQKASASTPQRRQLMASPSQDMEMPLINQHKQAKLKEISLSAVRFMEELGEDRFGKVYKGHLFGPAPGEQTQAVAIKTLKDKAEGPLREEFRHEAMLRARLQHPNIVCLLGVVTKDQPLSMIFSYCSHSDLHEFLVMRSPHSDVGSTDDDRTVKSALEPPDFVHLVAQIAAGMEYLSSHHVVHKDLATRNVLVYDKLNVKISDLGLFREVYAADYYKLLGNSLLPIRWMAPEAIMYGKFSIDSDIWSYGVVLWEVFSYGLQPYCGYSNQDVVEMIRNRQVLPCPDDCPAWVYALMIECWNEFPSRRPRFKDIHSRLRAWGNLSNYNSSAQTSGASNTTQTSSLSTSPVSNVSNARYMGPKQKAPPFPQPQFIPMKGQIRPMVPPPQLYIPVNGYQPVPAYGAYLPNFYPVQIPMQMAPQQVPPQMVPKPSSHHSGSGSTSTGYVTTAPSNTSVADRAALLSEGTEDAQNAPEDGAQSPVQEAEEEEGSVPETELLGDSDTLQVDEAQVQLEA
Experimental: Next, binding of bispecific CD3×ROR2 antibodies and monospecific ROR2 antibodies to CHO cells expressing human or cynomolgus monkey ROR2 was determined, using 5×10⁴ transfected cells/well and an antibody concentration range from 0.01-10 μg/mL.

[4] = target: T1, human (Homo sapiens) ROR2, full length, …; assay: flow cytometry on ROR2-expressing tumor cell lines
[5] = target: T1, human (Homo sapiens) ROR2, full length, …; assay: flow cytometry on CHO cells expressing human ROR2
Experimental: Cells (1×10⁵ cells/well) were incubated in polystyrene 96-well round-bottom plates (Greiner bio-one, cat. no. 650180) with serial dilutions of antibodies (ranging from 0.01 to 10 μg/mL in 3- or 4-fold dilution steps) in 100 μL PBS/0.1% BSA/0.02% azide (FACS buffer) at 4° C. for 30-60 min. Experiments were performed in technical duplicate. After washing twice in FACS buffer, cells were incubated in 50 μL secondary antibody (R-Phycoerythrin [PE]-conjugated goat-anti-human IgG F(ab′)₂; diluted 1:200 in FACS buffer; Jackson ImmunoResearch Laboratories, Inc., West Grove, PA, cat. no. 109-116-098) at 4° C. for 30 min. Cells were washed twice in FACS buffer, re-suspended in 30 μL FACS buffer containing Topro-3 (1:10,000 dilution) and analyzed on an iQue Screener (Intellicyt Corporation, USA). Binding curves were analyzed using non-linear regression (sigmoidal dose-response with variable slope) using GraphPad Prism V7.02 software (GraphPad Software, San Diego, CA, USA).

T1 sequence (Q01974 34-943 limits assumed): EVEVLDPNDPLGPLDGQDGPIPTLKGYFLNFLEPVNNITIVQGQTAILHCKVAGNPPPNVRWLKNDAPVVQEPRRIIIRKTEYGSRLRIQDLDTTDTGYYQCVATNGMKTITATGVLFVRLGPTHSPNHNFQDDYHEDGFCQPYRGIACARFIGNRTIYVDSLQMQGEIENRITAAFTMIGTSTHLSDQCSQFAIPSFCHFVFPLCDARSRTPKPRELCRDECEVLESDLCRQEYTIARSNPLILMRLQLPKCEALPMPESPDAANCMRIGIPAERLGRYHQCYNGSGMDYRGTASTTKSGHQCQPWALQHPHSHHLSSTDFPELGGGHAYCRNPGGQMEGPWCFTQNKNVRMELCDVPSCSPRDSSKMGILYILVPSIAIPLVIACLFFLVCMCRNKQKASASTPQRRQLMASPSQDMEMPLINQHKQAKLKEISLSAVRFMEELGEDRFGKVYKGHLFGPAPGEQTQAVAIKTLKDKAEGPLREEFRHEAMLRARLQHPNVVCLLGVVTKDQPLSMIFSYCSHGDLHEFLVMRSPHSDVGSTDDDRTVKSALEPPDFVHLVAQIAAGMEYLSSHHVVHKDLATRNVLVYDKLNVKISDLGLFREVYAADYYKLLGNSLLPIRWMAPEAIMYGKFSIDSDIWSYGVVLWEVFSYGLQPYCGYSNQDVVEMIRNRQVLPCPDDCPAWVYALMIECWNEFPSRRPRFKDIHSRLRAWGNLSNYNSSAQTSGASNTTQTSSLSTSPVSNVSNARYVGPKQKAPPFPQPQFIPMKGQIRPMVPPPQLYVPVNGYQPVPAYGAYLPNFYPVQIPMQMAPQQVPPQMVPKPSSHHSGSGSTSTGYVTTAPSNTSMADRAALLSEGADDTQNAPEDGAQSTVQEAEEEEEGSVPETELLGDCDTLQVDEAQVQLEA

B1: bsIgG1-huCD3-FEAL×chROR2-A-FEAR (bispecific antibody)
heavy 1: not shown
light 1: not shown
heavy 2: QSVEESGGRLVTPGTPLTLTCTVSGFSLSSYSMSWVRQAPGKGLEWIGVIYVNSKTWYANWAKGRFTISKTSTTVDLKITSPTTEDTATYFCARGDAGYTTNSWLWGPGTLVTVSSASTKGPSVFPLAPSSKSTSGGTAALGCLVKDYFPEPVTVSWNSGALTSGVHTFPAVLQSSGLYSLSSVVTVPSSSLGTQTYICNVNHKPSNTKVDKRVEPKSCDKTHTCPPCPAPEFEGGPSVFLFPPKPKDTLMISRTPEVTCVVVAVSHEDPEVKFNWYVDGVEVHNAKTKPREEQYNSTYRVVSVLTVLHQDWLNGKEYKCKVSNKALPAPIEKTISKAKGQPREPQVYTLPPSREEMTKNQVSLTCLVKGFYPSDIAVEWESNGQPENNYKTTPPVLDSDGSFFLYSRLTVDKSRWQQGNVFSCSVMHEALHNHYTQKSLSLSPGK
light 2: AFELTQTPASVSEPVGGTVTIKCQASESIDNYCSWYQQKPGQPPKLLIYQAFKLASGVPSRFRGSGSGTQFTLTISDLESDDAATYYCQSYSGISTTAFGGGTEVVVKRTVAAPSVFIFPPSDEQLKSGTASVVCLLNNFYPREAKVQWKVDNALQSGNSQESVTEQDSKDSTYSLSSTLTLSKADYEKHKVYACEVTHQGLSSPVTKSFNRGEC
[1]
  IC50 of T cell mediated cytotoxicity, 786-O cells, human T cells, E:T 8:1: 3 ng/mL
  IC50 of T cell mediated cytotoxicity, Hela cells, human T cells, E:T 8:1: 2 ng/mL
  IC50 of T cell mediated cytotoxicity, LCLC-103H cells, human T cells, E:T 8:1: 11 ng/mL
  IC50 of T cell mediated cytotoxicity, NCI-H23 cells, human T cells, E:T 8:1: 13 ng/mL
  IC50 of T cell mediated cytotoxicity, NCI-H1650 cells, human T cells, E:T 8:1: 6 ng/mL
  IC50 of T cell mediated cytotoxicity, ZR-75-1 cells, human T cells, E:T 8:1: 3 ng/mL
[2]
  binding result: binds
[3]
  binding result: binds

B2: bsIgG1-huCD3-H101G-FEAL×b12-FEAR (bispecific antibody)
heavy 1: not shown
light: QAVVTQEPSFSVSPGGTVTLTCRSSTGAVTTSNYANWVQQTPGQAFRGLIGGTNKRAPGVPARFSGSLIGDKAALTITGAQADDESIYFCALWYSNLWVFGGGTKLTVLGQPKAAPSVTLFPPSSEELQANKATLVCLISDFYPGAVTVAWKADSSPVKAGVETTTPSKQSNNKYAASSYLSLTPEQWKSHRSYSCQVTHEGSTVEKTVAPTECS
heavy 2: QVQLVQSGAEVKKPGASVKVSCQASGYRFSNFVIHWVRQAPGQRFEWMGWINPYNGNKEFSAKFQDRVTFTADTSANTAYMELRSLRSADTAVYYCARVGPYSWDDSPQDNYYMDVWGKGTTVIVSSASTKGPSVFPLAPSSKSTSGGTAALGCLVKDYFPEPVTVSWNSGALTSGVHTFPAVLQSSGLYSLSSVVTVPSSSLGTQTYICNVNHKPSNTKVDKRVEPKSCDKTHTCPPCPAPEFEGGPSVFLFPPKPKDTLMISRTPEVTCVVVAVSHEDPEVKFNWYVDGVEVHNAKTKPREEQYNSTYRVVSVLTVLHQDWLNGKEYKCKVSNKALPAPIEKTISKAKGQPREPQVYTLPPSREEMTKNQVSLTCLVKGFYPSDIAVEWESNGQPENNYKTTPPVLDSDGSFFLYSRLTVDKSRWQQGNVFSCSVMHEALHNHYTQKSLSLSPGK
VL: EIVLTQSPGTLSLSPGERATFSCRSSHSIRSRRVAWYQHKPGQAPRLVIHGVSNRASGISDRFSGSGSGTDFTLTITRVEPEDFALYYCQVYGASSYTFGQGTKLERK
notes: Control bispecific; also called bsIgG1-huCD3-H1010G-FEAL×b12-FEAR
[4]
  binding result: no binding (tested: 0.014-30 µg/mL)

B3: bsIgG1-huCD3-FEAL×ROR2-A-HC4LC3-FEAR (bispecific antibody)
heavy 1: not shown
light 1: not shown
heavy 2: EVQLLESGGGLVQPGGSLRLSCTVSGFSLSSYSMSWVRQAPGKGLEWIGVIYVNSKTWYANWAKGRFTISKDNSKNTVYLQMNSLRAEDTATYYCARGDAGYTTNSWLWGQGTLVTVSSASTKGPSVFPLAPSSKSTSGGTAALGCLVKDYFPEPVTVSWNSGALTSGVHTFPAVLQSSGLYSLSSVVTVPSSSLGTQTYICNVNHKPSNTKVDKRVEPKSCDKTHTCPPCPAPEFEGGPSVFLFPPKPKDTLMISRTPEVTCVVVAVSHEDPEVKFNWYVDGVEVHNAKTKPREEQYNSTYRVVSVLTVLHQDWLNGKEYKCKVSNKALPAPIEKTISKAKGQPREPQVYTLPPSREEMTKNQVSLTCLVKGFYPSDIAVEWESNGQPENNYKTTPPVLDSDGSFFLYSRLTVDKSRWQQGNVFSCSVMHEALHNHYTQKSLSLSPGK
light 2: AFELTQSPSSLSASVGDRVTITCQASESIDNYLSWYQQKPGKAPKLLIYQAFKLASGVPSRFRGSGSGTDFTLTISSLQPEDFATYYCQSYSGISTTAFGGGTKVEIKRTVAAPSVFIFPPSDEQLKSGTASVVCLLNNFYPREAKVQWKVDNALQSGNSQESVTEQDSKDSTYSLSSTLTLSKADYEKHKVYACEVTHQGLSSPVTKSFNRGEC
[5]
  binding result: binds
[2]
  binding result: binds
[3]
  binding result: binds

B4: bsIgG1-huCD3-H101G-FEAL×ROR2-A-HC4LC3-FEAR (bispecific antibody)
heavy 1: not shown
light 1: not shown
heavy 2: EVQLLESGGGLVQPGGSLRLSCTVSGFSLSSYSMSWVRQAPGKGLEWIGVIYVNSKTWYANWAKGRFTISKDNSKNTVYLQMNSLRAEDTATYYCARGDAGYTTNSWLWGQGTLVTVSSASTKGPSVFPLAPSSKSTSGGTAALGCLVKDYFPEPVTVSWNSGALTSGVHTFPAVLQSSGLYSLSSVVTVPSSSLGTQTYICNVNHKPSNTKVDKRVEPKSCDKTHTCPPCPAPEFEGGPSVFLFPPKPKDTLMISRTPEVTCVVVAVSHEDPEVKFNWYVDGVEVHNAKTKPREEQYNSTYRVVSVLTVLHQDWLNGKEYKCKVSNKALPAPIEKTISKAKGQPREPQVYTLPPSREEMTKNQVSLTCLVKGFYPSDIAVEWESNGQPENNYKTTPPVLDSDGSFFLYSRLTVDKSRWQQGNVFSCSVMHEALHNHYTQKSLSLSPGK
light 2: AFELTQSPSSLSASVGDRVTITCQASESIDNYLSWYQQKPGKAPKLLIYQAFKLASGVPSRFRGSGSGTDFTLTISSLQPEDFATYYCQSYSGISTTAFGGGTKVEIKRTVAAPSVFIFPPSDEQLKSGTASVVCLLNNFYPREAKVQWKVDNALQSGNSQESVTEQDSKDSTYSLSSTLTLSKADYEKHKVYACEVTHQGLSSPVTKSFNRGEC
[5]
  binding result: binds
[2]
  binding result: binds
